Holding throughout (test): double-antibody sandwich ELISA, R001 as capture and HRP-R001 as detection, mixture of HPV types
One assay has as its target T1, HPV33 VLP (Human papillomavirus type 33, UniProt P06416 1-499).
T1 construct: also called HPV33完整VLP蛋白
T1 sequence: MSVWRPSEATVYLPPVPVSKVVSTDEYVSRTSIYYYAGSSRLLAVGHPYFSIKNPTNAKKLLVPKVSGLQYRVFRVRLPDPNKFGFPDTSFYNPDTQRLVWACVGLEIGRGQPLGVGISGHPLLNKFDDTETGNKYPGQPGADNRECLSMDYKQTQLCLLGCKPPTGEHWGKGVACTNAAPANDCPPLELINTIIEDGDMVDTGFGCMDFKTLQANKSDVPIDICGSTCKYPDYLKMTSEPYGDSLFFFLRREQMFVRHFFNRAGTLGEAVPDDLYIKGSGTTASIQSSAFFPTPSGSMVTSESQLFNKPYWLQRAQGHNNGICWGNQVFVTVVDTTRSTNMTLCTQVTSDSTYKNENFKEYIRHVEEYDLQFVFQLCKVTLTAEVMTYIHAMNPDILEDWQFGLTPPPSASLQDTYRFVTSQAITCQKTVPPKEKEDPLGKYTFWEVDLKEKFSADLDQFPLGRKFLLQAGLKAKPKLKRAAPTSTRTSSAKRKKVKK

Another assay concerns the target T2, HPV11 VLP (Human papillomavirus type 11, UniProt P04012 1-501).
T2 construct: also called HPV11完整VLP蛋白
T2 sequence: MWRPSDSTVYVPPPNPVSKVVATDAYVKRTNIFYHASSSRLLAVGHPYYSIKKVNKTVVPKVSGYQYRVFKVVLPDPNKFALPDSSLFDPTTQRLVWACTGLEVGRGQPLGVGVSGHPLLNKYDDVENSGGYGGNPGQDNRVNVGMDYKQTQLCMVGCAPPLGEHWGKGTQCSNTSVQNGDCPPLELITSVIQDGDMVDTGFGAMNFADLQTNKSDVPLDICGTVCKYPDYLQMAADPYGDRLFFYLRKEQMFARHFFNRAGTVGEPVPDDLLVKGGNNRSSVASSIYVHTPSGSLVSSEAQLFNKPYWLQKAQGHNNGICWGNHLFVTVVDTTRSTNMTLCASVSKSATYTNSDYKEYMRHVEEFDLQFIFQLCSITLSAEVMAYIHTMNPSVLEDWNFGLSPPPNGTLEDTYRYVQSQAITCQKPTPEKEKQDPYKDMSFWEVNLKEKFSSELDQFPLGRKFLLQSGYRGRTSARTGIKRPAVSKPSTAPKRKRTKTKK

For another assay, the target named is T3, HPV51 VLP (Human papillomavirus type 51, UniProt P26536 1-504).
T3 construct: also called HPV51完整VLP蛋白
T3 sequence: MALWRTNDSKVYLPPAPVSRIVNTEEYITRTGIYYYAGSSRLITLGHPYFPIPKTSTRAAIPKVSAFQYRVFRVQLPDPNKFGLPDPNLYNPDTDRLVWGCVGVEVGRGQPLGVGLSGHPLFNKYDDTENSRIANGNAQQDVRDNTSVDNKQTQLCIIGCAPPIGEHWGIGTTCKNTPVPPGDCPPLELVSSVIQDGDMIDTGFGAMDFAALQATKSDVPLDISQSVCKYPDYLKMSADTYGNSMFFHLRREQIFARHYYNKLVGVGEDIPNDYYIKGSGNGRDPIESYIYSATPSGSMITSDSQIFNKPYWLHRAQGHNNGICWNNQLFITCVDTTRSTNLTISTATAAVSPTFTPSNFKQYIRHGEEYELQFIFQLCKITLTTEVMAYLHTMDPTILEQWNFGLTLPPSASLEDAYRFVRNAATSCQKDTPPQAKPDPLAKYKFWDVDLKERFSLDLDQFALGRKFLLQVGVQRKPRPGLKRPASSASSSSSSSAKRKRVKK

A further assay addresses T4, HPV31 VLP (Human papillomavirus type 31, UniProt P17388 1-504).
T4 construct: also called HPV31完整VLP蛋白
T4 sequence: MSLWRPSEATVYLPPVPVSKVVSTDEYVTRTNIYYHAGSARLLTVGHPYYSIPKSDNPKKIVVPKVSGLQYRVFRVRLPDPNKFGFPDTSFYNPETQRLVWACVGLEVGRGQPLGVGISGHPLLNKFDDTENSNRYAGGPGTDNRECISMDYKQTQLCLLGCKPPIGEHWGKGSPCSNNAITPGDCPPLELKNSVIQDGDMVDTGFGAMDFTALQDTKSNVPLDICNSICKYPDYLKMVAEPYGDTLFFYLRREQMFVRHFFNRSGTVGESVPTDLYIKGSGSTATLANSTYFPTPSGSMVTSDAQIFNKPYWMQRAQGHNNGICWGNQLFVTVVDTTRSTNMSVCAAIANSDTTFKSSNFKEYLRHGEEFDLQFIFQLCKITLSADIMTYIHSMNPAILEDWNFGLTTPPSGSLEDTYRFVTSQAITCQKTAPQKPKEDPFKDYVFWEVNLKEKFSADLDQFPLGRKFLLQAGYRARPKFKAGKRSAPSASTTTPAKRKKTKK

Another assay has as its target T5, HPV39 VLP (Human papillomavirus type 39, UniProt P24838 1-505).
T5 construct: also called HPV39完整VLP蛋白
T5 sequence: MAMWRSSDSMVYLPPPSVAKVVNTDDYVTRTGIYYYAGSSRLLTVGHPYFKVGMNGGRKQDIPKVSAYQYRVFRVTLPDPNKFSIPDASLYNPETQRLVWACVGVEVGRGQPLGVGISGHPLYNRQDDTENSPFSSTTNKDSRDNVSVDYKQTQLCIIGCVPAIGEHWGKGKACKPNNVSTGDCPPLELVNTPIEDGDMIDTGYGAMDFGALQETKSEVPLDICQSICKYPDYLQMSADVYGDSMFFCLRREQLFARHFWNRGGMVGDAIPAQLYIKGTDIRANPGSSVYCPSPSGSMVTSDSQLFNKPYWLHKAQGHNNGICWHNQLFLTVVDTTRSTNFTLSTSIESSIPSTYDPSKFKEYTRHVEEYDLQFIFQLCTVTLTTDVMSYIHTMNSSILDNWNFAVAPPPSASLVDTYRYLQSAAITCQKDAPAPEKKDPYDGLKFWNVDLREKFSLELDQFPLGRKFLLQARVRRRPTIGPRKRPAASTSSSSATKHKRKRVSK

Results on one molecule are retold here after patent publication CN112125972A (SINOCELLTECH LTD, dated 2020).

B1: HPV 16 R001 (antibody, V domains shown)
VH: QSVKESEGRLVTPGTPLTLTCTASGFTMSRYHMTWVRQAPGKGLEWIGIIYARNSDTYYANWAKGRFTISKTSTTVDLKITSPTIEDTATYFCARVDSDSSGAFDRLDLWGQGTLVTVSS
VL: DPMLTQTAASVEVAVGGTVTIKCQASQSIGGYLSWYQQKPGQRPKLLIYRASTLASGVPSRFKGSGSGTEYTLTFSGVECADAAAYYCQQGYTSSDINNAFGGGTEVVVK
notes: An HRP-labelled form served as detection antibody in the sandwich ELISA; also called HPV16.001; 单克隆抗体HPV 16 R001
For the molecule B1, the binding result with HPV33 VLP, with HPV11 VLP, with HPV51 VLP, with HPV31 VLP and with HPV39 VLP was “no binding (tested: 50ng/mL，25ng/mL，12.5ng/mL)” throughout.
